Assay results reported in publication PMC5165034 (Frontiers in Immunology, 2016).
Changes are numbered by the printed parent chain.

B1: 2D1 (VHH)
VHH: EVQLVESGGGLVKPGGSLRLSCAASGFTFSDYYMSWIRQAPGKGLEWVSYISSSGSTIYYADSVRGRFTISRDNAKDSLYLQMNSLRAEDTAVYYCARRRSLTVGAPTYWGQGTLVTVSS
B2: 2E2 (VHH)
VHH: B1 VHH with A23E, R65K
B3: 4D3 (VHH)
VHH: B1 VHH with I58L
B4: 2B3 (VHH)
VHH: B1 VHH with T57I, R65K
B5: 4A12 (VHH)
VHH: EVQLVESGGGLVKPGGSLRLSCAASGFTFSDYYMSWIRQAPGKGLEWVSYISSSGNTIYYADSVKGRFTISRDNAKNSLYLQMNSLRAEDTAVYYCARDRLGMVRPLHYWGQGTLVTVSS
B6: 4F5 (VHH)
VHH: B1 VHH with R65K, D77N
B7: 3B8 (VHH)
VHH: B5 VHH with S53G, K65R, V93L, L101A, P106G, L107P
B8: 3A6 (VHH)
VHH: B5 VHH with S53G, V104D
B9: 2F5 (VHH)
VHH: B5 VHH with G10D, K13E, S53G
B10: 2E6 (VHH)
VHH: B5 VHH with S53G
B11: 6F7 (VHH)
VHH: EVQLVESGGGLVKPGGSLRLSCAASGFTFSDYYMSWIRQAPGKGLEWVSYISSSGRTIYYADSVKGRFTISRDNAKNSLYLQMNSLRAEDTAVYYCARGGIAVAGTTRHYSDYWGQGTLVTVSS
B12: 3C8 (VHH)
VHH: EVQLLESGGGLVQPGGSLRLSCAASGFTFSSYAMSWVRQAPGKGLEWVSAITGSGSSTYYADSVKGRFTISRDNSKNTLYLQMNSLRAEDTAVYYCAKDRPYGSGSYKYGMDVGGQGTTVTVSS
B13: 3A5 (VHH)
VHH: EVQLVESGGGLVKPGGSLRLSCAASGFIFSDYYMSWIRQAPGKGLEWISYISSSGDSIYYADSVKGRFTISRDDAKNSLSLQMNSLRAEDTAVYYCARGWFGESHYSDFWGQGTLVTVSS
B14: 1D8 (VHH)
VHH: EVQLVESGGGLVKPGGSLRLSCAASGFTFSDYYMSWIRQAPGKGLEWVSYISSSGSTIYYADSVKGRFTISRDNAKNSLYLQMNSLRAEDTAVYYCARGPPFDYWGQGTLVTVSS
B15: 1B1 (VHH)
VHH: EVQLVESGGGLVKSGGSLRLSCAASGFTFSDYYMSWIRQAPGKGLEWVSYISSSGSTIYYADSVKGRFTISRDNAKNSLYLQMNSLRAEDTAVYYCARGISMARDYWGQGTLVTVSS
B16: 1F10 (VHH)
VHH: B15 VHH with S14P, N84S, M102L, A103T, R104G, D105T, Y106D
B17: 1A7 (VHH)
VHH: B15 VHH with S14P, A103T, R104G, T114N
B18: 4D7 (VHH)
VHH: B15 VHH with S7F, S14P, T57N, S71T, A103T, R104G, L112Q
B19: 1D10 (VHH)
VHH: B15 VHH with S14P, S54G, S56D, A103T, R104G, T114N
B20: 1H11 (VHH)
VHH: B15 VHH with S14P, Q39R, T57N, A61V, S101A, A103T, R104G, L112Q, S116T
B21: 4H7 (VHH)
VHH: B15 VHH with S14P, M102V, A103T, R104G, Y106S
B22: 4E8 (VHH)
VHH: B15 VHH with S14P, M102L, A103T, R104G
B23: 1C8 (VHH)
VHH: B15 VHH with S14P, A103V, R104G, Y106N
B24: 1H4 (VHH)
VHH: B15 VHH with S14P, S101A, A103V, R104E, Y106S
B25: 7H12 (VHH)
VHH: B15 VHH with S14P, A103V, R104G
B26: 1F12 (VHH)
VHH: B15 VHH with S14P, T57N, S101A, M102V, R104E, Y106V, L112T
B27: 1F1 (VHH)
VHH: B15 VHH with S14P, I100V, S101K, M102L, A103T, R104E, Y106N
B28: 1C9 (VHH)
VHH: B15 VHH with S14P, R98K, M102T, A103T, R104G, T111A, T114S
B29: 1C4 (VHH)
VHH: B15 VHH with S14P, R104G, Y106S
B30: 2B5 (VHH)
VHH: EVQLVESGGGLVKPGGSLRLSCAASGFTFSDYYMTWIRQTPGKGLEWVSYISDDNNTIYYADSVKGRFTISRDNAKNSLYLQMNSLRAEDTAVYYCARDGYFGELPGFDYWGQGTLVTVSS
B31: 4F9 (VHH)
VHH: EVQLVESGGGLVKPGGSLRLSCAASGFTFSDYYMSWIRQAPGKGLEWVSYISSSGSTIYYADSVKGRFTISRDNAKNSLYLQMNSLRAEDTAVYYCARDLVGATDFDYWGQGTLVTVSS
B32: 4G9 (VHH)
VHH: EVQLLESGGGLVQRGGSLRLSCAASGFTFSSYAMSWVRQAPGKGLEWVSAISGSGGSTHYADSVKGRFTISRDNSKNTLYLQMNSLRAEDTAVYYCAKKGDRGYFFDYWGQGTLVTVSS

The binders below were run against influenza virus X-31 hemagglutinin (HA) (Influenza A virus X-31 (H3N2; HA of …, UniProt P03437, strain).
B1: binds.
B2: binds.
B3: binds.
B4: binds.
B5: binds.
B6: binds.
B7: binds.
B8: binds.
B9: binds.
B10: binds.
B11: binds.
B12: binds.
B13: binds.
B14: binds.
B15: binds.
B16: binds.
B17: binds.
B18: binds.
B19: binds.
B20: binds.
B21: binds.
B22: binds.
B23: binds.
B24: binds.
B25: binds.
B26: binds.
B27: binds.
B28: binds.
B29: binds.
B30: binds.
B31: binds.
B32: binds.
